Reference: patent US20200262877A1, “ION CHANNEL-BINDING PEPTIDES AND METHODS OF USE THEREOF” (priority 2017, published 2020)

Legend:
[1] = biological target: T1, 5HT3a (Homo sapiens, UniProt P46098); experiment: Ion channel panel (IonWorks Barracuda): 5HT3a; format: cell-based
T1 construct: host or cells: HEK293 or CHO
T1 sequence (P46098 whole entry, looked up): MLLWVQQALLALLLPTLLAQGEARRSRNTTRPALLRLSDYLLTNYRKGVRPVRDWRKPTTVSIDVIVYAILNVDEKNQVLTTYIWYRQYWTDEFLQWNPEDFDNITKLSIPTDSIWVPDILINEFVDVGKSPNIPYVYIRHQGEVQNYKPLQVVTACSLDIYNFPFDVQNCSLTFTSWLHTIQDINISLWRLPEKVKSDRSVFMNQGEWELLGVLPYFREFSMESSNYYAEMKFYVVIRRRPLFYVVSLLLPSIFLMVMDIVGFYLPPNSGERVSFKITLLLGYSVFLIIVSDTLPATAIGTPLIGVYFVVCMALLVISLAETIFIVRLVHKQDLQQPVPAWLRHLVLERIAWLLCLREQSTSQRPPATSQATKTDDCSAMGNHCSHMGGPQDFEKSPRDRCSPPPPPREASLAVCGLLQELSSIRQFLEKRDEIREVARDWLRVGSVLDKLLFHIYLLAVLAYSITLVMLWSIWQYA
Procedure, shortened: (§1)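 Peptides were tested in duplicate at final 20 μM and 200 nM, with concentration set by amino acid analysis, in HEPES-buffered saline. They were applied for at least 5 min to HEK293 or CHO cells transfected with each channel. Currents were expressed as % inhibition, 1-(Ipeptide/Icontrol)×100, or % activation, Ipeptide/Icontrol×100, against a channel-matched reference compound.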

[2] = biological target: T2, α3β4 (Homo sapiens, UniProt P30926+P32297); experiment: Ion channel panel (IonWorks Barracuda): α3β4; format: cell-based; details: 100% = no change, <100% = inhibition
T2 construct: host or cells: HEK293 or CHO
Procedure, shortened: as §1

[3] = biological target: T3, α4β2 (Homo sapiens, UniProt P17787+P43681); experiment: Ion channel panel (IonWorks Barracuda): α4β2; format: cell-based; details: 100% = no change, <100% = inhibition
T3 construct: host or cells: HEK293 or CHO
Procedure, shortened: as §1

[4] = biological target: T4, Cav2.1 (Homo sapiens, UniProt O00555); experiment: cell-based; details: 100% = no change, <100% = inhibition
T4 construct: host or cells: HEK293 or CHO
Procedure, shortened: as §1

[5] = biological target: T5, Cav2.2 (Homo sapiens, UniProt Q00975); experiment: cell-based; details: 100% = no change, <100% = inhibition
T5 construct: host or cells: HEK293 or CHO
Procedure, shortened: as §1

[6] = biological target: T6, Kv2.1 (Homo sapiens, UniProt Q14721); experiment: cell-based; details: 100% = no change, <100% = inhibition
T6 construct: host or cells: HEK293 or CHO
Procedure, shortened: as §1

[7] = system: GABA; experiment: Ion channel panel (IonWorks Barracuda): GABA; format: cell-based; details: 100% = no change, <100% = inhibition
Procedure, shortened: as §1

[8] = biological target: Nav1.5 (Homo sapiens, UniProt Q14524); experiment: in vitro; details: 100% = no change; for Activity of Nav1.5 with peptide, expressed as a percentage of the reference compound: peptide at 0.2 μM; for Activity of Nav1.5 with peptide (percentage of the reference compound): peptide at 20 μM
Chain of Nav1.5 (Q14524 whole entry): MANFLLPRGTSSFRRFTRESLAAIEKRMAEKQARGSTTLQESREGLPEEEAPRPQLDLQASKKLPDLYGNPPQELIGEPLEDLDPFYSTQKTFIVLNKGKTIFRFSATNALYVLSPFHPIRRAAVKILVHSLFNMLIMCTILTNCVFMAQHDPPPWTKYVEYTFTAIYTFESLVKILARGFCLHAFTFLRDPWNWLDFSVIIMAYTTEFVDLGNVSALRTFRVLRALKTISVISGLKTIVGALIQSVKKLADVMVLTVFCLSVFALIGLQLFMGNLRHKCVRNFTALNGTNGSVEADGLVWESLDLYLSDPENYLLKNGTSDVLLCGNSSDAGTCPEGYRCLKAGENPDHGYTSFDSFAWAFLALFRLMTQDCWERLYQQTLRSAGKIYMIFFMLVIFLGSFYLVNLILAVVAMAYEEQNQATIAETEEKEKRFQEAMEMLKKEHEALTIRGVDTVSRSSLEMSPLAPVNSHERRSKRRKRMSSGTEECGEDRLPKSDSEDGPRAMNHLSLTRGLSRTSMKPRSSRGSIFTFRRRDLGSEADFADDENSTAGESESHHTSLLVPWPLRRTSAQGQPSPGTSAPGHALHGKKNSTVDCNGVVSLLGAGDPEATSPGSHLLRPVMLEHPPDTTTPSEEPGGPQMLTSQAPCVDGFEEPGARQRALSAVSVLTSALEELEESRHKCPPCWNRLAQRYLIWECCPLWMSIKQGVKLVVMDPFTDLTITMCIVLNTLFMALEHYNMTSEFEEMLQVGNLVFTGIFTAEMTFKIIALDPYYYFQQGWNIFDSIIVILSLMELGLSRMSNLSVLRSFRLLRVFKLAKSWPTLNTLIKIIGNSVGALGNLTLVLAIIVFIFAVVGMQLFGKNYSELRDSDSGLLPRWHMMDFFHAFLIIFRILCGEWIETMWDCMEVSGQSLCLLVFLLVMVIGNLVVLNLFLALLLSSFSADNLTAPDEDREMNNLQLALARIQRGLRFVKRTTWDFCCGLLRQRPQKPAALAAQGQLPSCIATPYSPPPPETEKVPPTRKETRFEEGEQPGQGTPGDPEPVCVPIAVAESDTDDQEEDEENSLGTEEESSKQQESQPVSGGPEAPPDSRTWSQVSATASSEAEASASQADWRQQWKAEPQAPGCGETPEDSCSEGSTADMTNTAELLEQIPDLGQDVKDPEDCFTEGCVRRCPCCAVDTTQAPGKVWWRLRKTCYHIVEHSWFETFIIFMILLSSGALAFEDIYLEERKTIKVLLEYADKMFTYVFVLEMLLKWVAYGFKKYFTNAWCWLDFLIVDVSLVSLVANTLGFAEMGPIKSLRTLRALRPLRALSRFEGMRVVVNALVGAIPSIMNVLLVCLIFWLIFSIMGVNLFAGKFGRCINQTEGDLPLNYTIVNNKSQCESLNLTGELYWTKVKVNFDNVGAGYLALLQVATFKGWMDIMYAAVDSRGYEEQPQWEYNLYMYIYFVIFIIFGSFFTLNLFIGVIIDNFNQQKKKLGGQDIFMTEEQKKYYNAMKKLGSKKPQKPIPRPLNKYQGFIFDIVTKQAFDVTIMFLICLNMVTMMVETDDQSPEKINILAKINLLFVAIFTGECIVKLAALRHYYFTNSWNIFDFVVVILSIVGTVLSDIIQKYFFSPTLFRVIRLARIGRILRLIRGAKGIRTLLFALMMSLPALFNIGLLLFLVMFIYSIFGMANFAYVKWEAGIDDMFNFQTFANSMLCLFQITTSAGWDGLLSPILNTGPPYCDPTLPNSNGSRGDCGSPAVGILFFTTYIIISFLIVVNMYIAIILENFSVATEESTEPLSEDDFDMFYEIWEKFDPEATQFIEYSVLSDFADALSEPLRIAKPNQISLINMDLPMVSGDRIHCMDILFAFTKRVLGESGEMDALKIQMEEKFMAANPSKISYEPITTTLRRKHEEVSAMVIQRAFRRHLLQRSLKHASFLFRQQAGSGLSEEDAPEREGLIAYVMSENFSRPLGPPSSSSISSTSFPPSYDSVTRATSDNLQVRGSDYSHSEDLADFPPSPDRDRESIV
Procedure, shortened: as §1

[9] = biological target: hERG (Homo sapiens, UniProt Q12809); experiment: in vitro; details: 100% = no change, <100% = inhibition
Chain of hERG (Q12809 whole entry): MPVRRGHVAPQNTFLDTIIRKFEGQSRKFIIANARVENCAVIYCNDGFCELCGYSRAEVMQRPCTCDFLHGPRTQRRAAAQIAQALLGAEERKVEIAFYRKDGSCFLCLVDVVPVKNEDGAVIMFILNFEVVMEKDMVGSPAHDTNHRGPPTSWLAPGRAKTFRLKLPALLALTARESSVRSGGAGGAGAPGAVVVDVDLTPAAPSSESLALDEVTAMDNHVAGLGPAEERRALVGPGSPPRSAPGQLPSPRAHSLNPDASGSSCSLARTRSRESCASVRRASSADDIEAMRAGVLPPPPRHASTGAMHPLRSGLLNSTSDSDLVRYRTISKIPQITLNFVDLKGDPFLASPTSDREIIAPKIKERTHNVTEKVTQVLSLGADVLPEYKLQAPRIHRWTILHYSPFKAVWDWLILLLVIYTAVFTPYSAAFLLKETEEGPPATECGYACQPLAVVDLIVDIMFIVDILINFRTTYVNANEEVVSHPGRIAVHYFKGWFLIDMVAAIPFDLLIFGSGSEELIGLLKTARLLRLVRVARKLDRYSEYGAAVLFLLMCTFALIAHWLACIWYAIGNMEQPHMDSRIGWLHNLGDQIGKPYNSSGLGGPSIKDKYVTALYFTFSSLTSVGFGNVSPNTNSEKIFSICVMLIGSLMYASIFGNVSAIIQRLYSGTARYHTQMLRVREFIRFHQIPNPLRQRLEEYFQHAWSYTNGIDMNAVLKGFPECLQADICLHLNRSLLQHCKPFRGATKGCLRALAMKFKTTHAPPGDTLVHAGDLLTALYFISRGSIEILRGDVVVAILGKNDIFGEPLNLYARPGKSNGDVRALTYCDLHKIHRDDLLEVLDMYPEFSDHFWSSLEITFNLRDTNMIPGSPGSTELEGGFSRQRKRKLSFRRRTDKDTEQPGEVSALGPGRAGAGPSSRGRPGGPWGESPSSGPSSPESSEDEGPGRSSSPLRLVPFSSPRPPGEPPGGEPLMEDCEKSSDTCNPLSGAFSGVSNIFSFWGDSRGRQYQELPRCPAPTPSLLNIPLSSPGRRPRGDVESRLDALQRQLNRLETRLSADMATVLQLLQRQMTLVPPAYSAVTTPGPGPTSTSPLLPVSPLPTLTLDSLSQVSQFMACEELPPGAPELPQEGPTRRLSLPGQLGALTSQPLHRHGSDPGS
Procedure, shortened: as §1

[10] = biological target: T7, Kir2.1 (Homo sapiens, UniProt P63252); experiment: Ion channel panel (IonWorks Barracuda): Kir2.1; format: cell-based; details: 100% = no change, <100% = inhibition
T7 construct: host or cells: HEK293 or CHO
Procedure, shortened: as §1

[11] = biological target: T8, Kv1.1 (Homo sapiens, UniProt Q09470); experiment: cell-based; format: cell-based; details: 100% = no change, <100% = inhibition
T8 construct: host or cells: HEK293 or CHO
Procedure, shortened: as §1

[12] = biological target: T9, Kv1.2 (Homo sapiens, UniProt P16389); experiment: cell-based; format: cell-based; details: 100% = no change, <100% = inhibition
T9 construct: host or cells: HEK293 or CHO
Procedure, shortened: as §1

[13] = biological target: T10, Kv1.3 (Homo sapiens, UniProt P22001); experiment: cell-based; format: cell-based; details: 100% = no change, <100% = inhibition
T10 construct: host or cells: HEK293 or CHO
Procedure, shortened: as §1

[14] = biological target: T11, Nav1.7 (Homo sapiens, UniProt Q15858); experiment: cell-based; format: cell-based; details: 100% = no change; for Activity of Nav1.7 with peptide, expressed as a percentage of the reference compound: peptide at 0.2 μM; for Activity of Nav1.7 with peptide (percentage of the reference compound): peptide at 20 μM
T11 construct: host or cells: HEK293 or CHO
T11 sequence (Q15858 whole entry): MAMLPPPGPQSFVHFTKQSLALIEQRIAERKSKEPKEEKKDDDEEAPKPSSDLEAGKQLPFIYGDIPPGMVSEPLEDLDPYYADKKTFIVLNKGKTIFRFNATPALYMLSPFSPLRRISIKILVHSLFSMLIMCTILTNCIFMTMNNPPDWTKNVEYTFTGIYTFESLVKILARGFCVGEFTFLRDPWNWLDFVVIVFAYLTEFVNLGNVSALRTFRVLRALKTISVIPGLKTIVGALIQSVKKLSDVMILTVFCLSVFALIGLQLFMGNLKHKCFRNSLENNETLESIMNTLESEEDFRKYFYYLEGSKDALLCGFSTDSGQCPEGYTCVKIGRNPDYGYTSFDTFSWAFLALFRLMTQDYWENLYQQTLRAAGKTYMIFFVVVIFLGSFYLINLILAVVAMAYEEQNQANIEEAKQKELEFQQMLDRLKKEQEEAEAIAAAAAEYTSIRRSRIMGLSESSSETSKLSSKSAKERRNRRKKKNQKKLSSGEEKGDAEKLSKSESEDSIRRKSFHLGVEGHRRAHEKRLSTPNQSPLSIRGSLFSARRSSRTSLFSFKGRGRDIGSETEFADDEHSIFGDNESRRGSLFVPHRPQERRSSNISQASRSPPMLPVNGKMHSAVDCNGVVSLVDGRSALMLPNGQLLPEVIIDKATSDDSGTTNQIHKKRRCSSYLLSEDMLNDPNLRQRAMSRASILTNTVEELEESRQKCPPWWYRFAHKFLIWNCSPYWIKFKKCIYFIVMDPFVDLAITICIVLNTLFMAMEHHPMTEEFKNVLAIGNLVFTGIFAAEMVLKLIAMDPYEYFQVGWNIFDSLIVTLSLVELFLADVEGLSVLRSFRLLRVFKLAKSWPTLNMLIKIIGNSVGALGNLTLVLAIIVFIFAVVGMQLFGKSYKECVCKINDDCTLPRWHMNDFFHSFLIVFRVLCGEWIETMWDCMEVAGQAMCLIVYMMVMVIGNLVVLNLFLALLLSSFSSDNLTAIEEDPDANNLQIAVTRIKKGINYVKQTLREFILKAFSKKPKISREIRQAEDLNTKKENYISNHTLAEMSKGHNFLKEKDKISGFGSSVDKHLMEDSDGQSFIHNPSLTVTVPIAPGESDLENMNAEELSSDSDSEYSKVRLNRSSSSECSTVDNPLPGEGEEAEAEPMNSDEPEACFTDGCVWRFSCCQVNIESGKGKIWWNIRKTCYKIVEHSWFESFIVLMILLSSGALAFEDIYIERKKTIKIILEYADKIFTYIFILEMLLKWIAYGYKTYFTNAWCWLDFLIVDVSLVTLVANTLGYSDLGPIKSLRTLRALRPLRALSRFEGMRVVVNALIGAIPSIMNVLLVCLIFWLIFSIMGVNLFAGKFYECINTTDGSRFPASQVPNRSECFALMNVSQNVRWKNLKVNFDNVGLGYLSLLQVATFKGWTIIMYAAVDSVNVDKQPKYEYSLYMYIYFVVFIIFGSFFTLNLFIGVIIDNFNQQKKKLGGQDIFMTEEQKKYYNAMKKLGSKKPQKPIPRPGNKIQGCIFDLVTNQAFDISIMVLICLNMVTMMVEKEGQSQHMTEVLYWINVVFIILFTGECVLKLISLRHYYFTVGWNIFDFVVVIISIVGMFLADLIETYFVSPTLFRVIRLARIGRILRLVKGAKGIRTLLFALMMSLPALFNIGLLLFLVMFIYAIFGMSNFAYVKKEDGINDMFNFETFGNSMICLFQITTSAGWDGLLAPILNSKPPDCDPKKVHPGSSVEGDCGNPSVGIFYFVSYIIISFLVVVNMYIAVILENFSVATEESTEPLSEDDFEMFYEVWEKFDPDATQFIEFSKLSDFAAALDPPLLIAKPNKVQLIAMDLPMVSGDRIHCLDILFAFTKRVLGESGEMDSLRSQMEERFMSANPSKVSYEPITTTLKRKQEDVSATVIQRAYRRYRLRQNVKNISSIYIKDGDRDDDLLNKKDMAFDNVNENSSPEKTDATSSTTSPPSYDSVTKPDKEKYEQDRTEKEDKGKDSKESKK

[15] = biological target: T12, NR2A (Homo sapiens, UniProt Q12879); experiment: Ion channel panel (IonWorks Barracuda): NR2A; format: cell-based; details: 100% = no change, <100% = inhibition
T12 construct: host or cells: HEK293 or CHO
Procedure, shortened: as §1

[16] = biological target: T13, NR2B (Homo sapiens, UniProt Q13224); experiment: Ion channel panel (IonWorks Barracuda): NR2B; format: cell-based; details: 100% = no change, <100% = inhibition
T13 construct: host or cells: HEK293 or CHO
Procedure, shortened: as §1

[17] = biological target: T14, TRPA1 (Homo sapiens, UniProt O75762); experiment: Ion channel panel (IonWorks Barracuda): TRPA1; format: cell-based; details: 100% = no change, <100% = inhibition
T14 construct: host or cells: HEK293 or CHO
Procedure, shortened: as §1

[18] = biological target: T15, TRPV1 (Homo sapiens, UniProt Q8NER1); experiment: Ion channel panel (IonWorks Barracuda): TRPV1; format: cell-based; details: 100% = no change, <100% = inhibition
T15 construct: host or cells: HEK293 or CHO
Procedure, shortened: as §1

[19] = first of two Nav1.5 columns (probably TP1)
[20] = second of two Nav1.5 columns (probably TP2)
[21] = first of two Nav1.7 columns (probably TP1)
[22] = second of two Nav1.7 columns (probably TP2)

## 39 (GSGVPTDVKCRGSPQCIQPCKDAGMRFGKCMNGKCHCTPK) [compound 39]
[1]
  Activity of 5HT3a with peptide (percentage of the reference compound): 55%
  Activity of 5HT3a with peptide, expressed as a percentage of the reference compound: 67%
[2]; peptide at 0.2 μM
  Activity of a3b4 with peptide, expressed as a percentage of the reference compound: 99%
[2]; peptide at 20 μM
  Activity of a3b4 with peptide (percentage of the reference compound): 93%
[3]; peptide at 0.2 μM
  Activity of a4b2 with peptide, expressed as a percentage of the reference compound: 98%
[3]; peptide at 20 μM
  Activity of a4b2 with peptide (percentage of the reference compound): 91%
[4]; peptide at 0.2 μM
  Activity of Cav2.1 with peptide, expressed as a percentage of the reference compound: 96%
[4]; peptide at 20 μM
  Activity of Cav2.1 with peptide (percentage of the reference compound): 96%
[5]; peptide at 0.2 μM
  Activity of Cav2.2 with peptide, expressed as a percentage of the reference compound: 117%
[5]; peptide at 20 μM
  Activity of Cav2.2 with peptide (percentage of the reference compound): 98%
[6]; peptide at 0.2 μM
  Activity of Kv2.1 with peptide, expressed as a percentage of the reference compound: 118%
[6]; peptide at 20 μM
  Activity of Kv2.1 with peptide (percentage of the reference compound): 102%
[7]; peptide at 0.2 μM
  Activity of GABA with peptide, expressed as a percentage of the reference compound: 111%
[7]; peptide at 20 μM
  Activity of GABA with peptide (percentage of the reference compound): 108%
[8]; [19]
  Activity of Nav1.5 with peptide, expressed as a percentage of the reference compound: 108%
  Activity of Nav1.5 with peptide (percentage of the reference compound): 111%
[8]; [20]
  Activity of Nav1.5 with peptide, expressed as a percentage of the reference compound: 105%
  Activity of Nav1.5 with peptide (percentage of the reference compound): 114%
[9]; peptide at 0.2 μM
  Activity of hERG with peptide, expressed as a percentage of the reference compound: 103%
[9]; peptide at 20 μM
  Activity of hERG with peptide (percentage of the reference compound): 84%
[10]; peptide at 0.2 μM
  Activity of Kir2.1 with peptide, expressed as a percentage of the reference compound: 110%
[10]; peptide at 20 μM
  Activity of Kir2.1 with peptide (percentage of the reference compound): 98%
[11]; peptide at 0.2 μM
  Activity of Kv1.1 with peptide, expressed as a percentage of the reference compound: 37%
[11]; peptide at 20 μM
  Activity of Kv1.1 with peptide (percentage of the reference compound): 21%
[12]; peptide at 0.2 μM
  Activity of Kv1.2 with peptide, expressed as a percentage of the reference compound: 96%
[12]; peptide at 20 μM
  Activity of Kv1.2 with peptide (percentage of the reference compound): 84%
[13]; peptide at 0.2 μM
  Activity of Kv1.3 with peptide, expressed as a percentage of the reference compound: 7%
[13]; peptide at 20 μM
  Activity of Kv1.3 with peptide (percentage of the reference compound): 1%
[14]; [21]
  Activity of Nav1.7 with peptide, expressed as a percentage of the reference compound: 42%
  Activity of Nav1.7 with peptide (percentage of the reference compound): 108%
[14]; [22]
  Activity of Nav1.7 with peptide, expressed as a percentage of the reference compound: 39%
  Activity of Nav1.7 with peptide (percentage of the reference compound): 110%
[15]; peptide at 0.2 μM
  Activity of NR2A with peptide, expressed as a percentage of the reference compound: 106%
[15]; peptide at 20 μM
  Activity of NR2A with peptide (percentage of the reference compound): 82%
[16]; peptide at 0.2 μM
  Activity of NR2B with peptide, expressed as a percentage of the reference compound: 102%
[16]; peptide at 20 μM
  Activity of NR2B with peptide (percentage of the reference compound): 85%
[17]; peptide at 0.2 μM
  Activity of TRPA1 with peptide, expressed as a percentage of the reference compound: 136%
[17]; peptide at 20 μM
  Activity of TRPA1 with peptide (percentage of the reference compound): 92%
[18]; peptide at 0.2 μM
  Activity of TRPV1 with peptide, expressed as a percentage of the reference compound: 95%
[18]; peptide at 20 μM
  Activity of TRPV1 with peptide (percentage of the reference compound): 83%
